No end group written: not given here. *: point of attachment. Biotin = O=C1N[C@H]2[C@H](CS[C@H]2CCCCC(=O)*)N1

Experiment [1] has as its target T1, p32 protein from mouse liver mitochondria extracts (mouse, UniProt O35658 71-278).
T1 construct: Endogenous protein pulled down from detergent lysate of Balb/c mouse liver mitochondria; also called C1qBP; specific band below 36-kDa
T1 sequence (looked up): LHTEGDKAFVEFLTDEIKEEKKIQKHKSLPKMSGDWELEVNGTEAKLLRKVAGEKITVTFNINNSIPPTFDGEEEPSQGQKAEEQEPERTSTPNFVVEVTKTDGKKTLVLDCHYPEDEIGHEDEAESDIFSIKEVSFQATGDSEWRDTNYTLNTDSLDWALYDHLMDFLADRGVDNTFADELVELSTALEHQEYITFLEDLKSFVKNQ
Briefly: pull-down from mitochondria extracts, mass spectrometry. How it is done: Affinity chromatography. […] Gel bands excised from silver-stained gels were analyzed by MALDI-TOF mass spectrometry at the Burnham Institute for Medical Research Proteomics Resource.

In experiment [2] the target is T2, purified p32 protein.
T2 chain: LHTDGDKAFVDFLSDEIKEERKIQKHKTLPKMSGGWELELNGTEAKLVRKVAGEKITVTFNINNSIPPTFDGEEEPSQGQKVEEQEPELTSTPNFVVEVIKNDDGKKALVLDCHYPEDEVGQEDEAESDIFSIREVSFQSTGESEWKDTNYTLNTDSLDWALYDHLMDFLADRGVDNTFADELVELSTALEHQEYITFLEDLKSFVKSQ
Briefly: comparison of the filing's CGKRK-p32 affinity with a literature value for LyP-1.

For experiment [3], the target named is T2, purified p32 protein. The experiment can be described thus: saturation binding, ELISA-type: biotin-CGKRK on immobilized purified p32, streptavidin-HRP (FIG. 19). (ELISA stands for enzyme-linked immunosorbent assay.)

B1: CGKRK peptide (peptide)
peptide: CGKRK
notes: Synthetic pentapeptide; also called Cys-Gly-Lys-Arg-Lys; non-labeled CGKRK
As for B1, the binding result in experiment [1] is recorded as “binds”.

B2: biotin-labeled CGKRK peptide (peptide)
peptide: Biotin-CGKRK
notes: Labeled form used in the ELISA-type assays on p32-coated wells, detected with streptavidin-HRP; also called biotin-CGKRK; biotin CGKRK
With B2, the “fold affinity relative to LyP-1” value with purified p32 protein [2] amounted to 15 fold. In addition, binding in the experiment with purified p32 protein [3] was put at a Kd of 0.2 µg/mL.

Values taken from US20110262347A1 (SALK INSTITUTE FOR BIOLOGICAL STUDIES, published 2011).
